Patent publication US20250074980A1 (BRIGHAM AND WOMEN S HOSPITAL, published 2025)

T1: His-tagged CEACAM1 (human, UniProt P13688 35-428)
T1 construct: 45 kDa SPR analyte; also called CEACAM1-HIS; CEACAM1 analyte
T1 sequence: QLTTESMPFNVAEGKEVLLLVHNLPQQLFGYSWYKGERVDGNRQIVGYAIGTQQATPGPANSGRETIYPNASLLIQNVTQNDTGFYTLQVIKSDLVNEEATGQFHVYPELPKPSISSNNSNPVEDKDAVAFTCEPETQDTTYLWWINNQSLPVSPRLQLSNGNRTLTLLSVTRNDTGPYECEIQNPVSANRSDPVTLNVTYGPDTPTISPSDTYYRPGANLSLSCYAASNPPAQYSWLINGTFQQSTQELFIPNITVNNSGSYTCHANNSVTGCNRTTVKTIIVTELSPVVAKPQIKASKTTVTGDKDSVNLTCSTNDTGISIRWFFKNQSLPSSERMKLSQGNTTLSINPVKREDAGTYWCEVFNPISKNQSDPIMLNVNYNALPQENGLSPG


How the values were obtained:
His-tagged CEACAM1 [1] = molecular target: T1, His-tagged CEACAM1; assay: SPR single-cycle, purified IgG captured
How it was run: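 On a Biacore T200, purified IgG was captured on a Series S Protein A chip, and His-tagged CEACAM1 was passed over it as the analyte in single-cycle kinetics surface plasmon resonance at 25° C in HBS-P+ (pH 7.4). Reference-channel and blank-run signals were subtracted before fitting kon, koff and Kd, with relative KD calculated against the parent antibody assayed in the same experiment.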

His-tagged CEACAM1 [2] = molecular target: T1, His-tagged CEACAM1; assay: SPR single-cycle, supernatant IgG captured
Description: In order to assess the binding of the humanized, affinity matured reformatted lead IgGs, single-cycle kinetics analysis was performed on crude supernatants using a Biacore T200 running Biacore T200 Control Software V2.0.1 and Biacore T200 Evaluation Software V3.0. Antibodies were diluted in HBS-P+ to a final concentration of 0.5 μg/ml. At the start of each cycle, antibodies were loaded onto Fc2, Fc3 and Fc4 of the Protein A chip. IgGs were captured at a flow rate of 10 μl/min to give an immobilisation level (RL) of ˜100 RU (a level calculated to obtain a Rₘₐₓ of ˜50-150 RU once the analyte is bound). The surface was then allowed to stabilize. Single-cycle kinetics data was obtained with CEACAM1 as the analyte at a flow rate of 80 μl/min to minimize any potential mass transfer effects. Multiple repeats with the parent (VH1/Vκ8 S29A) antibody were performed to check the stability of the surface and analyte over the kinetic cycles. The signal from the reference channel Fc1 (no antibody) was subtracted from that of Fc2, Fc3 and Fc4 to correct for differences in non-specific binding to the reference surface. A three point, two-fold dilution range from 70 nM to 280 nM CEACAM1 without regeneration between each concentration was used. The signal from each antibody blank run (no CEACAM1) was subtracted to correct for differences in surface stability. The association phase for the three injections of increasing concentrations of CEACAM1 was monitored for 80 seconds each time and a single dissociation phase was measured for 150 seconds following the last injection of CEACAM1. Regeneration of the Protein A surface was conducted using two injections of 10 mM glycine-HCL pH 1.5 followed by a stabilization period of 250 seconds.

His-tagged CEACAM1 [3] = molecular target: T1, His-tagged CEACAM1; assay: SPR single-cycle, supernatant IgG captured; remark: listed apart in the source
How it was run: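 His-tagged CEACAM1 served as analyte over Protein A-captured IgG in single-cycle surface plasmon resonance on a Biacore T200, performed at 25° C in HBS-P+ (pH 7.4). The IgG was taken from supernatants of transiently PEI-transfected HEK EBNA cells grown in 6-well plates and harvested 5-7 days later. Relative KD, alongside fitted Kon, koff and Kd, was referenced to the parent antibody run in the same experiment.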

His-tagged CEACAM1 [4] = molecular target: T1, His-tagged CEACAM1; assay: SPR single-cycle, IgG captured
Description: As an alternative approach to assess the binding of the 36 antibody combinations and the three control antibodies to CEACAM1, a kinetic analysis was performed on a Biacore T200 (serial no. 1909913) running Biacore T200 Evaluation Software V2.0.1 (Uppsala, Sweden). All experiments were run at 25° C. with HBS-P+ running buffer (pH 7.4) (GE Healthcare, cat. no. BR100671). All kinetic experiments were performed using His-tagged CEACAM1 as the analyte. For all experiments, antibodies were immobilized onto a Series S Protein A sensor chip surface. For kinetic experiments, the amount of immobilized/captured ligand was limited to avoid mass transfer effects at the surface of the chip with the surface ideally having an analyte binding level (Rₘₐₓ) of 50-150 RUs. Using a MW of 45 kDa for the CEACAM1 analyte, 150 kDa for the antibody ligand (estimated value for IgG), 50 RU for Rmax and the stoichiometry (Sm) as 2 due to the ability of each antibody to bind 2 target molecules, a target response level of ˜75 RUs was set for capture of all the sample antibodies.
Single cycle analysis of the 36 antibody combinations and the three control antibodies was performed on purified antibodies (Vκ1 to Vκ6 variants) or on the supernatants of the transiently transfected HEK EBNA cells (Vκ7 to Vκ12 variants). In some instances, where supernatant was not available, purified chimeric antibody VH0/Vκ0 was spiked into HEK EBNA culture medium to use as a positive control. Antibodies were diluted in HBS-P+ to a concentration of 1 μg/ml (as determined by an IgG quantitation ELISA). At the start of each cycle, antibodies were loaded onto Fc2, Fc3 and Fc4 of a protein A chip and IgG captured at a flow rate of 8 μl/min to give an RU of ˜75. The surface was then allowed to stabilize. Single cycle kinetic data was obtained at a flow rate of 50 μl/min to minimize any potential mass transfer effects. Multiple repeats of the chimeric antibody VH0/Vκ0 were performed to check the stability of the surface and analyte over the kinetic cycles. The signal from the reference channel Fc1 (no antibody) was subtracted from that of Fc2, Fc3 and Fc4 to correct for differences in non-specific binding to a reference surface. A 5 point 2-fold dilution range from 3.125 to 50 nM CEACAM1 without regeneration between each concentration was used.

| Binder | Kd (His-tagged CEACAM1 [1]) [nM] | koff (His-tagged CEACAM1 [1]) [s⁻¹] | kon (His-tagged CEACAM1 [1]) [M⁻¹ s⁻¹] | relative KD to parent (His-tagged CEACAM1 [1]) | Kd (His-tagged CEACAM1 [2]) [nM] | koff (His-tagged CEACAM1 [2]) [s⁻¹] | kon (His-tagged CEACAM1 [2]) [M⁻¹ s⁻¹] | relative KD to parent (His-tagged CEACAM1 [2]) | Kd (His-tagged CEACAM1 [3]) [nM] | koff (His-tagged CEACAM1 [3]) [s⁻¹] | kon (His-tagged CEACAM1 [3]) [M⁻¹ s⁻¹] | relative KD to parent (His-tagged CEACAM1 [3]) | binding result (His-tagged CEACAM1 [4]) |
| --- | --- | --- | --- | --- | --- | --- | --- | --- | --- | --- | --- | --- | --- |
| 8H3_9B3/CP08E05 (antibody, IgG4, V domains shown, IgG4 (S241P), kappa) VH: EVQLLESGGGLVQPGGSLRLSCAASGFTFNAHAISWVRQAPGKGLEWVATISSGGTYTYYPDSVKGRFTISRDNSKNTLYLQMNSLKAEDTAMYYCARHDFDYFPYWFAHWGQGTLVTVSS VL: EIVLTQSPATLSLSPGERATLSCRANSAVSYMYWYQQKPGQAPRPWIYLTSNRATGVPARFSGSGSGTDYTLTISSLEPEDFAVYYCQQWTTNPPTFGQGTKLEIK | 69 | 0.0065 | 95000 | 6.9 | 77 | 0.0072 | 93000 | 7.3 | – | – | – | – | – |
| 8H3_9B3/CP08F05 (antibody, IgG4, V domains shown, IgG4 (S241P), kappa) VH: EVQLLESGGGLVQPGGSLRLSCAASGFTFNAHAISWVRQAPGKGLEWVATISSGGTYTYYPDSVKGRFTISRDNSKNTLYLQMNSLKAEDTAMYYCARHDFDYFPYWFAHWGQGTLVTVSS VL: EIVLTQSPATLSLSPGERATLSCRANSAVSYMYWYQQKPGQAPRPWIYLTSNRATGVPARFSGSGSGTDYTLTISSLEPEDFAVYYCQQWTSNPPTFGQGTKLEIK | 59 | 0.0056 | 95000 | 8 | 70 | 0.0063 | 90000 | 8 | – | – | – | – | – |
| 8H3_9B3/Vκ8 S29A (antibody, IgG4, V domains shown, IgG4 (S241P), kappa) VH: EVQLLESGGGLVQPGGSLRLSCAASGFTFNAHAISWVRQAPGKGLEWVATISSGGTYTYYPDSVKGRFTISRDNSKNTLYLQMNSLKAEDTAMYYCARHDFDYFPYWFAHWGQGTLVTVSS VL: EIVLTQSPATLSLSPGERATLSCRANSAVSYMYWYQQKPGQAPRPWIYLTSNRATGVPARFSGSGSGTDYTLTISSLEPEDFAVYYCQQWSSNPPTFGQGTKLEIK | 67 | 0.0062 | 92000 | 7.1 | 77 | 0.0069 | 90000 | 7.2 | – | – | – | – | – |
| 8H3_9C2/CP08F05 (antibody, IgG4, V domains shown, IgG4 (S241P), kappa; also called 8H3_9C2/CPO08_F05) VH: EVQLLESGGGLVQPGGSLRLSCAASEFTFSDHAMSWVRQAPGKGLEWVATISSGGTYTYYPDSVKGRFTISRDNSKNTLYLQMNSLKAEDTAMYYCARHGFDYFPYWFAHWGQGTLVTVSS VL: EIVLTQSPATLSLSPGERATLSCRANSAVSYMYWYQQKPGQAPRPWIYLTSNRATGVPARFSGSGSGTDYTLTISSLEPEDFAVYYCQQWTSNPPTFGQGTKLEIK | 76 | 0.0055 | 73000 | 6.3 | 93 | 0.0061 | 66000 | 6 | – | – | – | – | – |
| CP09B03/CP08E05 (antibody, IgG4, V domains shown, IgG4 (S241P), kappa) VH: EVQLLESGGGLVQPGGSLRLSCAASGFTFNAHAISWVRQAPGKGLEWVATISSGGTYTYYPDSVKGRFTISRDNSKNTLYLQMNSLKAEDTAMYYCARHDFDYDAAWFAYWGQGTLVTVSS VL: EIVLTQSPATLSLSPGERATLSCRANSAVSYMYWYQQKPGQAPRPWIYLTSNRATGVPARFSGSGSGTDYTLTISSLEPEDFAVYYCQQWTTNPPTFGQGTKLEIK | 90 | 0.0096 | 110000 | 5.3 | – | – | – | – | 97 | 0.01 | 110000 | 5.7 | – |
| CP09C02/CP08F05 (antibody, IgG4, V domains shown, IgG4 (S241P), kappa) VH: EVQLLESGGGLVQPGGSLRLSCAASEFTFSDHAMSWVRQAPGKGLEWVATISSGGTYTYYPDSVKGRFTISRDNSKNTLYLQMNSLKAEDTAMYYCARHGFDYDAAWFAYWGQGTLVTVSS VL: EIVLTQSPATLSLSPGERATLSCRANSAVSYMYWYQQKPGQAPRPWIYLTSNRATGVPARFSGSGSGTDYTLTISSLEPEDFAVYYCQQWTSNPPTFGQGTKLEIK | 95 | 0.01 | 110000 | 5 | – | – | – | – | 100 | 0.011 | 110000 | 5.5 | – |
| VH2/Vκ6 (antibody, IgG4, V domains shown, IgG4 (S241P), kappa) VH: EVQLLESGGGLVQPGGSLRLSCAASGFIFSSHGMSWVRQAPGKGLEWVATISSGGTYTYYPDSVKGRFTISRDNSKNTLYLQMNSLRAEDTAMYYCARHDFDYDAAWFAYWGQGTLVTVSS VL: DIQLTQSPSFLSASVGDRVTITCRANSSVSYMAWYQQKPGKAPKLLIYLTSNLQSGVPSRFSGSGSGTEFTLTISSLQPEDFATYYCQQWSSNPPTFGQGTKLEIK | – | – | – | – | – | – | – | – | – | – | – | – | no binding (tested: 50 nM) |
| VH1/Vκ6 (antibody, IgG4, V domains shown, IgG4 (S241P), kappa) VH: EVQLLESGGGLVQPGGSLRLSCAASGFIFSSHGMSWVRQAPGKGLEWVATISSGGTYTYYPDSVKGRFTISRDNSKNTLYLQMNSLKAEDTAMYYCARHDFDYDAAWFAYWGQGTLVTVSS VL: DIQLTQSPSFLSASVGDRVTITCRANSSVSYMAWYQQKPGKAPKLLIYLTSNLQSGVPSRFSGSGSGTEFTLTISSLQPEDFATYYCQQWSSNPPTFGQGTKLEIK | – | – | – | – | – | – | – | – | – | – | – | – | no binding (tested: 50 nM) |
| VH3/Vκ6 (antibody, IgG4, V domains shown, IgG4 (S241P), kappa) VH: EVQLLESGGGLVQPGGSLRLSCAASGFIFSSHGMSWVRQAPGKGLEWVATISSGGTYTYYADSVKGRFTISRDNSKNTLYLQMNSLRAEDTAMYYCARHDFDYDAAWFAYWGQGTLVTVSS VL: DIQLTQSPSFLSASVGDRVTITCRANSSVSYMAWYQQKPGKAPKLLIYLTSNLQSGVPSRFSGSGSGTEFTLTISSLQPEDFATYYCQQWSSNPPTFGQGTKLEIK | – | – | – | – | – | – | – | – | – | – | – | – | no binding (tested: 50 nM) |
| VH4/Vκ6 (antibody, IgG4, V domains shown, IgG4 (S241P), kappa) VH: EVQLLESGGGLVQPGGSLRLSCAASGFIFSSHGMSWVRQAPGKGLEWVSTISSGGTYTYYADSVKGRFTISRDNSKNTLYLQMNSLRAEDTAVYYCARHDFDYDAAWFAYWGQGTLVTVSS VL: DIQLTQSPSFLSASVGDRVTITCRANSSVSYMAWYQQKPGKAPKLLIYLTSNLQSGVPSRFSGSGSGTEFTLTISSLQPEDFATYYCQQWSSNPPTFGQGTKLEIK | – | – | – | – | – | – | – | – | – | – | – | – | no binding (tested: 50 nM) |
